Measurements published in article PMC10397247.

Key:
[1] = biological target: T1, APC2237-AA; assay: two-hybrid library CCmax; conditions: mean of both orientations;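 note: natural log of median RNA to DNA barcode read ratio; higher means stronger binding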
T1 chain: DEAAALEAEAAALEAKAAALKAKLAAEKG

[2] = biological target: T2, APC1015-AA; assay: two-hybrid library CCmax; conditions: mean of both orientations;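 note: natural log of median RNA to DNA barcode read ratio; higher means stronger binding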
T2 chain: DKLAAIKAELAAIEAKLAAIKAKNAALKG

[3] = biological target: T3, APC4436-AA; assay: two-hybrid library CCmax; conditions: mean of both orientations;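 note: natural log of median RNA to DNA barcode read ratio; higher means stronger binding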
T3 chain: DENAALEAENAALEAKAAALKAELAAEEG

[4] = biological target: T4, APC8191-AA; assay: two-hybrid library CCmax; conditions: mean of both orientations;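 note: natural log of median RNA to DNA barcode read ratio; higher means stronger binding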
T4 chain: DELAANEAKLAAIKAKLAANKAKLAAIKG

[5] = biological target: T5, 4H733-AA; assay: two-hybrid library CCmax; conditions: mean of both orientations;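 note: natural log of median RNA to DNA barcode read ratio; higher means stronger binding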
T5 chain: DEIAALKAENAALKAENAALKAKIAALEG

[6] = biological target: T6, 4H3330-AA; assay: two-hybrid library CCmax; conditions: mean of both orientations;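 note: natural log of median RNA to DNA barcode read ratio; higher means stronger binding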
T6 chain: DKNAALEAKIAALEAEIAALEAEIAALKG

[7] = biological target: T7, APC6108-AA; assay: two-hybrid library CCmax; conditions: mean of both orientations
T7 chain: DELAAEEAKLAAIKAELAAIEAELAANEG

[8] = biological target: T8, APC7099-AA; assay: two-hybrid library CCmax; conditions: mean of both orientations
T8 chain: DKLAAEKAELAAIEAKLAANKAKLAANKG

[9] = biological target: T9, APC9096-AA; assay: two-hybrid library CCmax; conditions: mean of both orientations
T9 chain: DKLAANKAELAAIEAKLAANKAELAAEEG

[10] = biological target: T10, APC3645-AA; assay: two-hybrid library CCmax; conditions: mean of both orientations
T10 chain: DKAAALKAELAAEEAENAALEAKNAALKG

[11] = biological target: T11, 4H2458-AA; assay: two-hybrid library CCmax
T11 chain: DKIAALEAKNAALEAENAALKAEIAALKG

[12] = biological target: T12, APC2405-AA; assay: two-hybrid library CCmax; conditions: mean of both orientations
T12 chain: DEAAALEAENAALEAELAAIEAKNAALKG

[13] = biological target: T13, 4H807-AA; assay: two-hybrid library CCmax; conditions: mean of both orientations
T13 chain: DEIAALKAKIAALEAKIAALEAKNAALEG

[14] = biological target: T14, APC9319-AA; assay: two-hybrid library CCmax; conditions: mean of both orientations
T14 chain: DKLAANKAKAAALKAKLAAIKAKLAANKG

[15] = biological target: T15, APC5383-AA; assay: two-hybrid library CCmax; conditions: mean of both orientations
T15 chain: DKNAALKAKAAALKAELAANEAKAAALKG

[16] = biological target: T16, APC4264-AA; assay: two-hybrid library CCmax; conditions: mean of both orientations
T16 chain: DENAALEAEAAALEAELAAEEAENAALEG

[17] = biological target: T17, APC4011-AA; assay: two-hybrid library CCmax; conditions: mean of both orientations
T17 chain: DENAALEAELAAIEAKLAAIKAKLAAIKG

[18] = biological target: T18, 4H716-AA; assay: two-hybrid library CCmax; conditions: mean of both orientations
T18 chain: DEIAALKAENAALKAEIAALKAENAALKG

[19] = biological target: T19, APC1434-AA; assay: two-hybrid library CCmax; conditions: mean of both orientations
T19 chain: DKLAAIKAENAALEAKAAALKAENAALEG

[20] = biological target: T20, APC232-AA; assay: two-hybrid library CCmax; conditions: mean of both orientations
T20 chain: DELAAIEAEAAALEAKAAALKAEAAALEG

[21] = biological target: T21, APC8910-AA; assay: two-hybrid library CCmax; conditions: mean of both orientations
T21 chain: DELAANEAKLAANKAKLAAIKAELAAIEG

[22] = biological target: T22, O8-bP; assay: two-hybrid library CCNG1
T22 chain: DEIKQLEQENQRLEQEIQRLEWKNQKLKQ

[23] = biological target: T23, O5-bP; assay: two-hybrid library CCNG1
T23 chain: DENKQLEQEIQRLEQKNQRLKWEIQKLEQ

[24] = biological target: T24, O9-bP; assay: two-hybrid library CCNG1
T24 chain: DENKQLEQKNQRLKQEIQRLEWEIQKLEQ

[25] = biological target: T25, O2-bP; assay: two-hybrid library CCNG1
T25 chain: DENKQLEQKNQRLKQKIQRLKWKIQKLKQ

[26] = biological target: T26, O15-bP; assay: two-hybrid library CCNG1
T26 chain: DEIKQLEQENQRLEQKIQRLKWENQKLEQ

[27] = biological target: T27, O6-bP; assay: two-hybrid library CCNG1
T27 chain: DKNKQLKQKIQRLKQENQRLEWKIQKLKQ

[28] = biological target: T28, O13-bP; assay: two-hybrid library CCNG1
T28 chain: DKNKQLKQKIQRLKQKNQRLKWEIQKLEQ

[29] = biological target: T29, O16-bP; assay: two-hybrid library CCNG1
T29 chain: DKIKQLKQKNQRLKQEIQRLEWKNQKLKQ

[30] = biological target: T30, O3-bP; assay: two-hybrid library CCNG1
T30 chain: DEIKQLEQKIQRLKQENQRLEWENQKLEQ

[31] = biological target: T31, O4-bP; assay: two-hybrid library CCNG1
T31 chain: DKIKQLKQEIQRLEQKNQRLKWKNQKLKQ

[32] = biological target: T32, O14-bP; assay: two-hybrid library CCNG1
T32 chain: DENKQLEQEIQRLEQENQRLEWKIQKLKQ

[33] = biological target: T33, O7-bP; assay: two-hybrid library CCNG1
T33 chain: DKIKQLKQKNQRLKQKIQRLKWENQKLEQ

Binder: DKIAALEAKNAALEAENAALKAEIAALKG [4H2458-AA]
- interaction score [1]: -1.44
- interaction score [2]: -1.95
- interaction score [3]: -1.67
- interaction score [4]: -2.11
- interaction score [5]: -1.61
- interaction score [6]: -1.38
- interaction score [7]: -1.71
- interaction score [8]: -1.31
- interaction score [9]: -1.34
- interaction score [10]: -1.47
- interaction score [11]: 2.24
- interaction score [12]: -1.59
- interaction score [13]: -1.17
- interaction score [14]: -2.07
- interaction score [15]: -1.7
- interaction score [16]: -1.79
- interaction score [17]: -0.914
- interaction score [18]: -0.991
- interaction score [19]: -1.22
- interaction score [20]: -1.85
- interaction score [21]: -1.49

Binder: DKNKQLKQKIQRLKQKNQRLKWEIQKLEQ [O13-bP]
- interaction score [22]: -0.609
- interaction score [23]: -0.814
- interaction score [24]: -1.05
- interaction score [25]: -1.3
- interaction score [26]: -0.599
- interaction score [27]: -0.094
- interaction score [28]: -2.25
- interaction score [29]: -1.17
- interaction score [30]: -1.76
- interaction score [31]: -0.851
- interaction score [32]: 1.35
- interaction score [33]: -1.19

Binder: DENKQLEQEIQRLEQENQRLEWKIQKLKQ [O14-bP]
- interaction score [22]: -2.05
- interaction score [23]: 1.11
- interaction score [24]: -0.215
- interaction score [25]: -0.77
- interaction score [26]: -0.0315
- interaction score [27]: 1.82
- interaction score [29]: 1.73
- interaction score [30]: -0.787
- interaction score [31]: -1.04
- interaction score [32]: -1.46
- interaction score [33]: 0.0513
